In patent US20250313631A1 (HUMMINGBIRD BIOSCIENCE PTE, published 2025):

What was measured:
human PD-1 = human PD-1 (human, UniProt Q15116 25-167); experiment: ELISA, plate coated with the antigen
human B7H3 = target: T1, human B7H3 (human, UniProt Q5ZPR3 29-461, limits assumed); experiment: ELISA, plate coated with the antigen
T1 construct: also called CD276
T1 sequence (looked up): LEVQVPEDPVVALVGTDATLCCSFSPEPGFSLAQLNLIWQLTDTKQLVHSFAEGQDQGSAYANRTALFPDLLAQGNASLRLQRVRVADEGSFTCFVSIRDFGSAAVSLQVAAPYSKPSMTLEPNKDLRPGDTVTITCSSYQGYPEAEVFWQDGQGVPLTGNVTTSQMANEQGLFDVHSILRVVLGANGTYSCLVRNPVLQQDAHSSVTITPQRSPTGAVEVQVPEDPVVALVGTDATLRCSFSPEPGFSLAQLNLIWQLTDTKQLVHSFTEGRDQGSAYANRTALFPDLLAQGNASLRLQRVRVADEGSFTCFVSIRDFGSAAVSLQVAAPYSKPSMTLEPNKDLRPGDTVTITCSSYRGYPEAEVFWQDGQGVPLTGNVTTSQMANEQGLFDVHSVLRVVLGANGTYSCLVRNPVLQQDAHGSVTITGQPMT

human B7H4 = target: T2, human B7H4 (human, UniProt Q7Z7D3 25-258, limits assumed); experiment: ELISA, plate coated with the antigen
T2 construct: also called VTCN1
T2 sequence (looked up): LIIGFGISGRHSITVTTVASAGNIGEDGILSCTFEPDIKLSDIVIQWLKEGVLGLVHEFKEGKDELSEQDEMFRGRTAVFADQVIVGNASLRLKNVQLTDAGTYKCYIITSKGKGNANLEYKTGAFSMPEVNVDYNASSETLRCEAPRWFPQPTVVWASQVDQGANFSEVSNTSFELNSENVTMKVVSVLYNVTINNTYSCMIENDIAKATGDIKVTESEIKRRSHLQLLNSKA

human B7H6 = target: T3, human B7H6 (human, UniProt Q68D85 25-262); experiment: ELISA, plate coated with the antigen
T3 construct: also called NCR3LG1
T3 sequence (looked up): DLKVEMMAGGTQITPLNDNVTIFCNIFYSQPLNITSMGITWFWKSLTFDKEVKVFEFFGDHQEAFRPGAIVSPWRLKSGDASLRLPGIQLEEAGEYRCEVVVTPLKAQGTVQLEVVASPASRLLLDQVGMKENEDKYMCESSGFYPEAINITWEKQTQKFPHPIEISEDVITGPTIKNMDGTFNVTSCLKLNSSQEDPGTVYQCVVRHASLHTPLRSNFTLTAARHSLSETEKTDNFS

human B7H7 = target: T4, human B7H7 (human, UniProt Q9UM44 23-344); experiment: ELISA, plate coated with the antigen
T4 construct: also called HHLA2
T4 sequence (looked up): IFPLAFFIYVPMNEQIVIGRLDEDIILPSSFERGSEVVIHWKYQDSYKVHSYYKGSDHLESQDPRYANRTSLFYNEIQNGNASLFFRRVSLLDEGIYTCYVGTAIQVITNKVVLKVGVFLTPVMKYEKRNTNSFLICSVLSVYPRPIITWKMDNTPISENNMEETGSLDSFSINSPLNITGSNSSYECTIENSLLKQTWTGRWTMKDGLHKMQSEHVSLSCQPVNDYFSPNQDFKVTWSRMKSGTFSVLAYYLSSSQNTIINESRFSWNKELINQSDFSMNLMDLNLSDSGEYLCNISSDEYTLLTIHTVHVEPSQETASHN

human CTLA4 [1] = target: T5, human CTLA4 (human, UniProt P16410 36-162); experiment: ELISA, plate coated with the antigen
[2] = target: T6, recombinant human VISTA (His-tagged) (human, UniProt Q9H7M9 33-194); experiment: ELISA, plate coated with human VISTA
T6 construct: bought soluble protein (Sino Biological); also called hVISTA; human VISTA polypeptide

[3] = target: T7, recombinant mouse VISTA (His-tagged) (mouse, UniProt Q9D659 33-191); experiment: ELISA, VISTA-HIS protein coated; ELISA, mouse VISTA-HIS
T7 construct: also called murine VISTA; mVISTA
T7 sequence (looked up): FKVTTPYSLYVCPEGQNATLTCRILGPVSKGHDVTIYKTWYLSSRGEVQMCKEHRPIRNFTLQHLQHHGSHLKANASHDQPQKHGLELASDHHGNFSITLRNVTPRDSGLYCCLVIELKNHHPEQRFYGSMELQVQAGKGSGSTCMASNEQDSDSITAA

[4] = target: T6, recombinant human VISTA (His-tagged); experiment: antigen-binding ELISA; HMBD-002 10 mg/mL in F4, day 0
[5] = target: T6, recombinant human VISTA (His-tagged); experiment: antigen-binding ELISA; HMBD-002 in F5, day 10 at 40°C
[6] = target: T6, recombinant human VISTA (His-tagged); experiment: antigen-binding ELISA; HMBD-002 in F5, day 20 at 40°C
[7] = target: T6, recombinant human VISTA (His-tagged); experiment: antigen-binding ELISA; HMBD-002 in F8, day 10 at 40°C
[8] = target: T8, cynomolgus macaque VISTA expressed on cells (cynomolgus macaque, UniProt A0A7N9IB00 33-311); experiment: flow cytometry, HEK293T cells expressing the NHP VISTA ortholog
T8 construct: whole, on cells; also called NHP VISTA on HEK293T cells; VISTA on NHP CD11b+ myeloid cells

human CTLA4 [9] = target: T5, human CTLA4; experiment: ELISA, plate coated with human CTLA-4, antibody titrated
[10] = target: T6, recombinant human VISTA (His-tagged); experiment: antigen-binding ELISA; reference standard run with the day 20 samples
[11] = target: T6, recombinant human VISTA (His-tagged); experiment: ELISA on coated human VISTA, antibody diluted in buffer of pH 6
[12] = target: T6, recombinant human VISTA (His-tagged); experiment: antigen-binding ELISA; reference standard run with the day 0 samples; reference standard, run with the Day 0 samples

T5 sequence (P16410 36-162 limits assumed): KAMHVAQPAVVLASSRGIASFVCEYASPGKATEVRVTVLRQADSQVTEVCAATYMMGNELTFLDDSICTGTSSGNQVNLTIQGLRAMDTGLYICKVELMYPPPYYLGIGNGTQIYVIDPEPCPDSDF
Chain of human PD-1 (Q15116 25-167 limits assumed): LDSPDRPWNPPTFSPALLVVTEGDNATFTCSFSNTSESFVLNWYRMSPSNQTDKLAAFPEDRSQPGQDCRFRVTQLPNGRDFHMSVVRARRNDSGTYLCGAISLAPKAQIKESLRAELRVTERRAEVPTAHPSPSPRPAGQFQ

B1: anti-VISTA clone V4-C24 IgG1 (antibody, V domains shown)
VH: QVQLQESGPGLVKPSDTLSLTCTVSGYSITSDYTWNWIRQTPGKGLEWIGHITYSGSVSYNPSLRSRVTISRDTSKNQFSLKLSSVTAADTATYSCARALYYPWYFDVWGTGTTVTVSS
VL: EIVLTQSPATLSLSPGERATLSCRASSSVGYIHWYQQKPGQAPRPLIYTTSYRATGIPARFSGSGSGTDNTLTISSLEPEDSAVYYCQQWSSYPPITFGGGTKLEVKR
B1: no binding (tested: log -7.5 M) (human PD-1); no binding (tested: log -7.5 M) (human B7H3); no binding (tested: log -7.5 M) (human B7H4). B1: no binding (tested: log -7.5 M) (human B7H6); no binding (tested: log -7.5 M) (human B7H7); no binding (tested: log -7.5 M) (human CTLA4 [1]).

B2: anti-VISTA clone V4-C26 IgG1 (antibody)
heavy: not shown
light: EIVLTQSPATLSLSPGERATLSCRASSSVGYIHWYQQKPGQAPRPIIYTTSNRATGIPARFSGSGSGTDNTLTISSLEPEDSAVYYCQQWSSYPPITFGGGTKLEVKRTVAAPSVFIFPPSDEQLKSGTASVVCLLNNFYPREAKVQWKVDNALQSGNSQESVTEQDSKDSTYSLSSTLTLSKADYEKHKVYACEVTHQGLSSPVTKSFNRGEC
With B2 the “EC50 (read off the curve)” value [2] was ~10 pM.

B3: V4-C26 hIgG4 (antibody)
heavy: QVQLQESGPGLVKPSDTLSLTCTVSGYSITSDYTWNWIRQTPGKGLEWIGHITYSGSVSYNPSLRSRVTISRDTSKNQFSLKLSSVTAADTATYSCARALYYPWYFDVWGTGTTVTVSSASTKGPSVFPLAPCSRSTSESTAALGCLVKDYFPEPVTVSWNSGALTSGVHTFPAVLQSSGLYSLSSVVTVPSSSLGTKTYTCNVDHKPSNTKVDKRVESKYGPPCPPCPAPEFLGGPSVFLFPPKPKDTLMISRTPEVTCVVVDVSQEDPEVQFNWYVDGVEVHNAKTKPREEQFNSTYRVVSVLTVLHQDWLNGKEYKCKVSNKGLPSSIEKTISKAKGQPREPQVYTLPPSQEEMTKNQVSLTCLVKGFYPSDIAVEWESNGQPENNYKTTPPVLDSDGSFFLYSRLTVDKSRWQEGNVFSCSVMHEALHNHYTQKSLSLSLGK
light: EIVLTQSPATLSLSPGERATLSCRASSSVGYIHWYQQKPGQAPRPIIYTTSNRATGIPARFSGSGSGTDNTLTISSLEPEDSAVYYCQQWSSYPPITFGGGTKLEVKRTVAAPSVFIFPPSDEQLKSGTASVVCLLNNFYPREAKVQWKVDNALQSGNSQESVTEQDSKDSTYSLSSTLTLSKADYEKHKVYACEVTHQGLSSPVTKSFNRGEC
notes: human IgG4 (S228P)/kappa format; also called HMBD-002; HMBD-002-V4C26
B3 gave an EC50 [3] of 3.55 pM, an EC50 [4] of 0.0357 nM and an EC50 [5] of 0.0341 nM. For the same binder, the EC50 [6] was 0.0239 nM, the EC50 [7] was 0.028 nM and the EC50 [8] was 2.57 nM. For the same binder, the binding result (human CTLA4 [9]) was “no binding (tested: about 3e-8 M)”, the EC50 [10] was 0.0355 nM and the EC50 [11] was 0.0589 nM. The EC50 [12] was 0.0307 nM.
